In patent publication US20190233493A1 (Sanofi, published 2019):
One block for each binder: values may come before it. *1 amine or outer side, *2 acyl side, *3 side chain or, on linkers, in order; H or OH if unused. Primed or numbered codes have the meaning given here. Side-chain parts run from the residue outwards. [ ]: non-standard residue; d: D form. The star is where a group is joined. PEG12 = NCCOCCOCCOCCOCCOCCOCCOCCOCCOCCOCCOCCOCCC(=O)O; γGlu = O=C(O)[C@H](CCC(=O)[*:2])N[*:1]; 1Nal = N[C@@H](Cc1cccc2ccccc12)C(=O)O; Stearoyl = CCCCCCCCCCCCCCCCCC(=O)*; Palmitoyl = CCCCCCCCCCCCCCCC(=O)*; αMeK = C[C@](N)(CCCCN)C(=O)O; Nle = CCCC[C@H](N)C(=O)O; PEG2′ = PEG2 spacer unit; PEG2″ = not defined here; Aib = CC(C)(N)C(=O)O

Molecular target: T1, RXFP1 receptor (UniProt Q9HBX9 1-757, limits assumed)
T1 sequence (looked up): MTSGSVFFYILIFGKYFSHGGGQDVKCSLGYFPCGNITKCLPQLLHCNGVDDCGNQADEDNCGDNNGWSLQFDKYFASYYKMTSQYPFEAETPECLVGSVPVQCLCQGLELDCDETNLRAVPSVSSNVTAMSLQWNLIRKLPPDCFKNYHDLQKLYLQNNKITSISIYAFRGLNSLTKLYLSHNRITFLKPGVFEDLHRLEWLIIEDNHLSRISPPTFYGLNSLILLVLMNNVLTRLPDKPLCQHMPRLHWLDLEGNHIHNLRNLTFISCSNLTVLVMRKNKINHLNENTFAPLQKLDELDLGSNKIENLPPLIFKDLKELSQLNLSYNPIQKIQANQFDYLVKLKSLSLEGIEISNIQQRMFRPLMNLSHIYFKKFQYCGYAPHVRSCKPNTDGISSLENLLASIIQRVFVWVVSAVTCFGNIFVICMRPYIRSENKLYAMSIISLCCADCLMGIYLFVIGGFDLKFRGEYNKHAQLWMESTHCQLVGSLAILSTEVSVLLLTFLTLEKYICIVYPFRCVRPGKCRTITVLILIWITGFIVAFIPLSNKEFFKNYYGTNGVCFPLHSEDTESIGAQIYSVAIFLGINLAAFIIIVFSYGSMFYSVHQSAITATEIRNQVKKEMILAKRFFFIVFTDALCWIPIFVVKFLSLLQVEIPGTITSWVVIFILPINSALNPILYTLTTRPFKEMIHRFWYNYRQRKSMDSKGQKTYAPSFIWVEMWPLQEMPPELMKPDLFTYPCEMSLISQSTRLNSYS
Assay: cell-based or functional assay

B2: peptide of SEQ ID NO: 68 (peptide)
peptide: Ac-LEGREKVRAQI[Aib][Aib]EGESTWS[Aib]RKKK([PEG2″-PEG2″-γGlu-γGlu-γGlu-Stearoyl])-NH2
- EC50 (nM), OVCAR 5 cells (cAMP): 0.63 nM
- EMax, OVCAR 5 cells (cAMP): 94%

B3: peptide of SEQ ID NO: 76 (peptide)
peptide: Ac-LEGREKVRAQI[Aib][Aib]EG[Nle]STWT[Aib]RKKK([PEG2″-PEG2″-PEG2″-γGlu-γGlu-γGlu-Stearoyl])-NH2
- EC50 (nM), OVCAR 5 cells (cAMP): 0.8 nM
- EMax, OVCAR 5 cells (cAMP): 89%

B4: peptide of SEQ ID NO: 8 (peptide)
peptide: Ac-LEGREKVRAQI[Aib][Aib]EG[Nle]STWS[Aib]RKK([γGlu-γGlu-γGlu-Palmitoyl])-NH2
SMILES: CCCCCCCCCCCCCCCC(=O)N[C@@H](CCC(=O)N[C@@H](CCC(=O)N[C@@H](CCC(=O)NCCCC[C@H](NC(=O)[C@H](CCCCN)NC(=O)[C@H](CCCNC(=N)N)NC(=O)C(C)(C)NC(=O)[C@H](CO)NC(=O)[C@H](Cc1c[nH]c2ccccc12)NC(=O)[C@@H](NC(=O)[C@H](CO)NC(=O)[C@H](CCCC)NC(=O)CNC(=O)[C@H](CCC(=O)O)NC(=O)C(C)(C)NC(=O)C(C)(C)NC(=O)[C@@H](NC(=O)[C@H](CCC(N)=O)NC(=O)[C@H](C)NC(=O)[C@H](CCCNC(=N)N)NC(=O)[C@@H](NC(=O)[C@H](CCCCN)NC(=O)[C@H](CCC(=O)O)NC(=O)[C@H](CCCNC(=N)N)NC(=O)CNC(=O)[C@H](CCC(=O)O)NC(=O)[C@H](CC(C)C)NC(C)=O)C(C)C)[C@@H](C)CC)[C@@H](C)O)C(N)=O)C(=O)O)C(=O)O)C(=O)O
- EC50 (nM), OVCAR 5 cells (cAMP): 26.7 nM
- EMax, OVCAR 5 cells (cAMP): 98%

B5: peptide of SEQ ID NO: 74 (peptide)
peptide: Ac-LEGREKVRAQI[Aib][Aib]EG[Nle]STWS[Aib]RKK([PEG2″-PEG2″-PEG2″-γGlu-γGlu-γGlu-Stearoyl])-NH2
- EC50 (nM), OVCAR 5 cells (cAMP): 0.07 nM
- EMax, OVCAR 5 cells (cAMP): 85%

B7: peptide of SEQ ID NO: 73 (peptide)
peptide: Ac-LEGREKVRAK(Ac)I[Aib][Aib]EG[Nle]STWS[Aib]RKK([PEG2″-PEG2″-γGlu-γGlu-γGlu-Stearoyl])-NH2
- EC50 (nM), OVCAR 5 cells (cAMP): 0.12 nM
- EMax, OVCAR 5 cells (cAMP): 90%

B8: peptide of SEQ ID NO: 67 (peptide)
peptide: Ac-LEGREKVRAQI[Aib][Aib]EG[Nle]STWS[Aib]RKK([PEG2″-PEG2″-γGlu-γGlu-γGlu-Stearoyl])-NH2
- EC50 (nM), OVCAR 5 cells (cAMP): 0.39 nM
- EMax, OVCAR 5 cells (cAMP): 89%

B9: peptide of SEQ ID NO: 72 (peptide)
peptide: Ac-LEGREKVRAK(Ac)I[Aib][Aib]EG[Nle]STWS[Aib]RK(Ac)KK([PEG2″-PEG2″-γGlu-γGlu-γGlu-Stearoyl])-NH2
- EC50 (nM), OVCAR 5 cells (cAMP): 0.17 nM
- EMax, OVCAR 5 cells (cAMP): 93%

B10: peptide of SEQ ID NO: 69 (peptide)
peptide: Ac-LEGREKVR[Aib]QI[Aib][Aib]EG[Nle]STWS[Aib]RKKK([PEG2″-PEG2″-γGlu-γGlu-γGlu-Stearoyl])-NH2
- EC50 (nM), OVCAR 5 cells (cAMP): 0.56 nM
- EMax, OVCAR 5 cells (cAMP): 87%

B14: peptide of SEQ ID NO: 7 (peptide)
peptide: Ac-LEGREKVRAQI[Aib][Aib]EGMSTWS[Aib]RKK([γGlu-γGlu-γGlu-Palmitoyl])-NH2
SMILES: CCCCCCCCCCCCCCCC(=O)N[C@@H](CCC(=O)N[C@@H](CCC(=O)N[C@@H](CCC(=O)NCCCC[C@H](NC(=O)[C@H](CCCCN)NC(=O)[C@H](CCCNC(=N)N)NC(=O)C(C)(C)NC(=O)[C@H](CO)NC(=O)[C@H](Cc1c[nH]c2ccccc12)NC(=O)[C@@H](NC(=O)[C@H](CO)NC(=O)[C@H](CCSC)NC(=O)CNC(=O)[C@H](CCC(=O)O)NC(=O)C(C)(C)NC(=O)C(C)(C)NC(=O)[C@@H](NC(=O)[C@H](CCC(N)=O)NC(=O)[C@H](C)NC(=O)[C@H](CCCNC(=N)N)NC(=O)[C@@H](NC(=O)[C@H](CCCCN)NC(=O)[C@H](CCC(=O)O)NC(=O)[C@H](CCCNC(=N)N)NC(=O)CNC(=O)[C@H](CCC(=O)O)NC(=O)[C@H](CC(C)C)NC(C)=O)C(C)C)[C@@H](C)CC)[C@@H](C)O)C(N)=O)C(=O)O)C(=O)O)C(=O)O
- EC50 (nM), OVCAR 5 cells (cAMP): 17.6 nM
- EMax, OVCAR 5 cells (cAMP): 87%

B15: peptide of SEQ ID NO: 77 (peptide)
peptide: Ac-LEGREKVRLQI[Aib][Aib]EG[Nle]STWT[Aib]RKKK([PEG2″-PEG2″-PEG2″-γGlu-γGlu-γGlu-Stearoyl])-NH2
- EC50 (nM), OVCAR 5 cells (cAMP): 2.94 nM
- EMax, OVCAR 5 cells (cAMP): 92%

B16: peptide of SEQ ID NO: 70 (peptide)
peptide: Ac-LEGREKVRAQI[Aib][Aib]EGQSTWS[Aib]RKKK([PEG2″-PEG2″-γGlu-γGlu-γGlu-Stearoyl])-NH2
- EC50 (nM), OVCAR 5 cells (cAMP): 0.28 nM
- EMax, OVCAR 5 cells (cAMP): 86%

B17: peptide of SEQ ID NO: 71 (peptide)
peptide: Ac-LEGREKVRAQI[Aib][Aib]EG[Nle]STWS[Aib]RKKK([PEG2″-PEG2″-γGlu-γGlu-γGlu-Stearoyl])-NH2
- EC50 (nM), OVCAR 5 cells (cAMP): 0.52 nM
- EMax, OVCAR 5 cells (cAMP): 87%

B18: peptide of SEQ ID NO: 75 (peptide)
peptide: Ac-LEGREKVRAQI[Aib][Aib]EG[Nle]STWS[Aib]RKKK([PEG2″-PEG2″-PEG2″-γGlu-γGlu-γGlu-Stearoyl])-NH2
- EMax, OVCAR 5 cells (cAMP): 88%

B20: peptide of SEQ ID NO: 66 (peptide)
peptide: Ac-LEGREKVRAK(Ac)I[Aib][Aib]EG[Nle]STWS[Aib]RKK(Ac)K([PEG12-γGlu-γGlu-γGlu-Palmitoyl])-NH2
SMILES: CCCCCCCCCCCCCCCC(=O)N[C@@H](CCC(=O)N[C@@H](CCC(=O)N[C@@H](CCC(=O)NCCOCCOCCOCCOCCOCCOCCOCCOCCOCCOCCOCCOCCC(=O)NCCCC[C@H](NC(=O)[C@H](CCCCNC(C)=O)NC(=O)[C@H](CCCCN)NC(=O)[C@H](CCCNC(=N)N)NC(=O)C(C)(C)NC(=O)[C@H](CO)NC(=O)[C@H](Cc1c[nH]c2ccccc12)NC(=O)[C@@H](NC(=O)[C@H](CO)NC(=O)[C@H](CCCC)NC(=O)CNC(=O)[C@H](CCC(=O)O)NC(=O)C(C)(C)NC(=O)C(C)(C)NC(=O)[C@@H](NC(=O)[C@H](CCCCNC(C)=O)NC(=O)[C@H](C)NC(=O)[C@H](CCCNC(=N)N)NC(=O)[C@@H](NC(=O)[C@H](CCCCN)NC(=O)[C@H](CCC(=O)O)NC(=O)[C@H](CCCNC(=N)N)NC(=O)CNC(=O)[C@H](CCC(=O)O)NC(=O)[C@H](CC(C)C)NC(C)=O)C(C)C)[C@@H](C)CC)[C@@H](C)O)C(N)=O)C(=O)O)C(=O)O)C(=O)O
- EC50 (nM), OVCAR 5 cells (cAMP): 0.57 nM
- EMax, OVCAR 5 cells (cAMP): 83%

B21: peptide of SEQ ID NO: 65 (peptide)
peptide: Ac-LEGREKVRAK(Ac)I[Aib][Aib]EG[Nle]STWS[αMeK]RKK(Ac)K([PEG2″-PEG2″-PEG2″-γGlu-γGlu-γGlu-γGlu-Palmitoyl])-NH2
- EC50 (nM), OVCAR 5 cells (cAMP): 0.12 nM
- EMax, OVCAR 5 cells (cAMP): 93%

More lines, now with the values ahead:

- EC50 (nM), OVCAR 5 cells (cAMP): 0.73 nM
- EMax, OVCAR 5 cells (cAMP): 68%
B1: peptide of SEQ ID NO: 80 (peptide)
peptide: Ac-LEGREKVR[Aib]K(Ac)I[Aib][Aib]EG[Nle]ST[1Nal]S[Aib]RKK([PEG2′-PEG2′-PEG2′-γGlu-γGlu-γGlu-Stearoyl])-NH2

- EC50 (nM), OVCAR 5 cells (cAMP): 0.09 nM
- EMax, OVCAR 5 cells (cAMP): 76%
B6: peptide of SEQ ID NO: 84 (peptide)
peptide: Ac-LEGREKVRAK(Ac)I[Aib][Aib]EG[Nle]ST[1Nal]S[Aib]RKK(Ac)K([PEG2′-PEG2′-PEG2′-γGlu-γGlu-γGlu-Stearoyl])-NH2

- EC50 (nM), OVCAR 5 cells (cAMP): 0.02 nM
- EMax, OVCAR 5 cells (cAMP): 89%
B11: peptide of SEQ ID NO: 82 (peptide)
peptide: Ac-LEGREKVRAK(Ac)I[Aib][Aib]EG[Nle]STWS[αMeK]RKK(Ac)K([PEG2′-PEG2′-PEG2′-γGlu-γGlu-γGlu-γGlu-Stearoyl])-NH2

- EC50 (nM), OVCAR 5 cells (cAMP): 0.22 nM
- EMax, OVCAR 5 cells (cAMP): 84%
B12: peptide of SEQ ID NO: 81 (peptide)
peptide: Ac-LEGREKVRAK(Ac)I[Aib][Aib]EG[Nle]STWS[Aib]RKK(Ac)K([PEG2′-PEG2′-PEG2′-γGlu-γGlu-γGlu-Stearoyl])-NH2

- EC50 (nM), OVCAR 5 cells (cAMP): 0.85 nM
- EMax, OVCAR 5 cells (cAMP): 92%
B13: peptide of SEQ ID NO: 83 (peptide)
peptide: Ac-LEGREKVRAK(Ac)I[Aib][Aib]EG[Nle]STWS[Aib]RKK([PEG2′-PEG2′-PEG2′-γGlu-γGlu-γGlu-Stearoyl])-NH2

- EC50 (nM), OVCAR 5 cells (cAMP): 0.4 nM
- EMax, OVCAR 5 cells (cAMP): 75%
B19: peptide of SEQ ID NO: 79 (peptide)
peptide: Ac-LEGREKVRAK(Ac)I[Aib][Aib]EG[Nle]ST[1Nal]S[Aib]RKK([PEG2″-PEG2″-PEG2″-γGlu-γGlu-γGlu-Stearoyl])-NH2

- EC50 (nM), OVCAR 5 cells (cAMP): 1.04 nM
- EMax, OVCAR 5 cells (cAMP): 73%
B22: peptide of SEQ ID NO: 78 (peptide)
peptide: Ac-LEGREKVRAK(Ac)I[Aib][Aib]EG[Nle]STYS[Aib]RKK(Ac)K([PEG2″-PEG2″-PEG2″-γGlu-γGlu-γGlu-Stearoyl])-NH2
